Target: T1, complement factor H (human, UniProt P08603 19-1231, 125I-labelled (Iodobeads) in the blot and bacterial binding assays)
T1 construct: also called fH; FH
Assay: SPR (Biacore), GST:Hic39-261 captured on anti-GST antibody chip, fH as analyte, Langmuir 1:1 model, mean ± SD of three experiments

T1 sequence (P08603 19-1231 limits assumed): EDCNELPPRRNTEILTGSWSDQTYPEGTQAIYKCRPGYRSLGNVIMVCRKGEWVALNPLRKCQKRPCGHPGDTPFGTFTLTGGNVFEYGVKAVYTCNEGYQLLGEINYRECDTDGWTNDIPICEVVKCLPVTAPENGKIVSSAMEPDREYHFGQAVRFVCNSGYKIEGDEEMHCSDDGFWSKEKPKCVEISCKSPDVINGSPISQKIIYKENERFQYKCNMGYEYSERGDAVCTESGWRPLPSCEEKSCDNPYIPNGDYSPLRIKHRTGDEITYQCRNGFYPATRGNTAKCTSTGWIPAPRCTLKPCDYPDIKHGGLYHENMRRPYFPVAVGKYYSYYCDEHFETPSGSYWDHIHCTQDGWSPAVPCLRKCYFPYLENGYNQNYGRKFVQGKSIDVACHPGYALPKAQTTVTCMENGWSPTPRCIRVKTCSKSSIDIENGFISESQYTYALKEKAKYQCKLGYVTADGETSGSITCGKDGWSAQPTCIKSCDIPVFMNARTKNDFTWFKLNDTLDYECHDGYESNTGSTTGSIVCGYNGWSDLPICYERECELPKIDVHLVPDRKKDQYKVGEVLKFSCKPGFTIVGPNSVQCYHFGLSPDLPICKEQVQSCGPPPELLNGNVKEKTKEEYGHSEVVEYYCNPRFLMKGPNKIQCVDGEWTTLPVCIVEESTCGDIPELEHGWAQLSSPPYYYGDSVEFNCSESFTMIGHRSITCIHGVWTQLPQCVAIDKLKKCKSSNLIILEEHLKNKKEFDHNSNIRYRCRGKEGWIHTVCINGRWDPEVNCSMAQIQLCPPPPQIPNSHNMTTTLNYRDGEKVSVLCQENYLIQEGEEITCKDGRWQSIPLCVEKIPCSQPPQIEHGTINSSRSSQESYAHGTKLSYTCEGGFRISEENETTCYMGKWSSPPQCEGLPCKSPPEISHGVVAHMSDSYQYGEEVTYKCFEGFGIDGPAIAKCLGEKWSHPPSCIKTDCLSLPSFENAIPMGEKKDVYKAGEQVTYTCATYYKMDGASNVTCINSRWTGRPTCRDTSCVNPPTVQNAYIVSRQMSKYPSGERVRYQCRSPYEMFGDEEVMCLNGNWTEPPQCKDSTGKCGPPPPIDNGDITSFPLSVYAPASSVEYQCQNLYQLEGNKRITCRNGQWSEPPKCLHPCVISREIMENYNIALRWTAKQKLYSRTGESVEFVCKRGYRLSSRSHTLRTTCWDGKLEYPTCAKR

B1: GST:Hic^39-261 fusion protein (other)
chain: EKEVTTQVATSSNKANKSQTEHMKAAKQVDEYIEKMLSEIQLDRRKHTQNVGLLTKLGAIKTEYLRGLSVSKEKSTAELPSEIKEKLTAAFEQFKKDTLKSGKKVAEAQKKAKDQKEAKQEIEALIVKHKGREIDLDRKKAKAAVTEHLKKLLNDIEKNLKKEQHTHTVELIKNLKDIEKTYLHKLDESTQKAQLQKLIAESQSKLDEAFSKFKNGLSSSSNS
notes: main band 54 kDa, partly degraded; Vector-derived residues after the EcoRI site, if any, are not described; also called fusion between GST and the NH2-terminal Hic region; not shown: glutathione S-transferase (GST) encoded by vector pGEX-5X-3 (Pharmacia Biotech); vector-encoded residues between GST and the BamHI cloning site of pGEX-5X-3
Binder B1 has a Ka of 5e+07 M⁻¹, a Kd of 23 nM and a koff of 0.00061 s⁻¹. It also gave a kon of 28000 M⁻¹ s⁻¹.
